From patent US20080044405A1 (Harvard, published 2008)

Legend:
[1] = target: T1, HLA-DR1 (soluble, produced by Drosophila S2 cell lines) (human); test: fluorescence polarization, DR1-CLIP-AlexaFluor488 0.1 uM at 37 C without DM, with excess unlabeled HA peptide (100 uM), no metal (intrinsic dissociation)
[2] = target: T1, HLA-DR1 (soluble, produced by …); test: fluorescence polarization, DR1-CLIP-AlexaFluor488 0.1 uM at 37 C in the presence of 100 uM K2PdCl4, no DM, no excess HA peptide
[3] = target: T1, HLA-DR1 (soluble, produced by …); test: fluorescence polarization, DR1-CLIP-AlexaFluor488 0.1 uM at 37 C in the presence of 100 uM K2PtCl4, no DM, no excess HA peptide
[4] = target: T1, HLA-DR1 (soluble, produced by …); test: fluorescence polarization, DR1-CLIP-AlexaFluor488 0.1 uM at 37 C in the presence of 100 uM KAuCl4, no DM, no excess HA peptide
[5] = target: T1, HLA-DR1 (soluble, produced by …); test: fluorescence polarization, DR1-CLIP-AlexaFluor488 0.1 uM at 37 C with DM (0.1 uM) and excess unlabeled HA peptide (100 uM), no metal
[6] = target: T1, HLA-DR1 (soluble, produced by …); test: fluorescence polarization, DR1-CLIP-AlexaFluor488 0.1 uM at 37 C in the presence of 100 uM cisplatin, no DM, no excess HA peptide

t1/2 of CLIP dissociation [1]: 94.6 h
t1/2 of CLIP dissociation [2]: 1.59 h
t1/2 of CLIP dissociation [3]: 3.05 h
t1/2 of CLIP dissociation [4]: 2.76 h
t1/2 of CLIP dissociation [5]: 8.66 h
t1/2 of CLIP dissociation [6]: 4.34 h
B1: Alexa-Fluor 488-labeled CLIP peptide (peptide)
peptide: CPVSKMRMATPLLMQA
modifications: Cys labelled with AlexaFluor 488 C5 maleimide
notes: an N-terminal Cys is added to CLIP(87-101); also called af-CLIP; CLIP-AlexaFluor488
